The supplement of paper PMC7125110
± gives the standard error. This sample holds only a part of the variants without activity.

B1: glmS ribozyme (parent)
chain: AUAAAAGCGCCAGAACUACAGAAAUGUAGUUGACGAGGAGGAGGUUUAUCGAAUUUUCGGCGGAUGCCUCCAAA

How the values were obtained:
Details in all cases: with glucosamine-6-phosphate
glucosamine-6-phosphate [1] = variants of: B1; experiment: self-cleavage kobs at 160 uM GlcN6P; higher = faster cleavage; RNA array
Summary of the method: (§1)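 Weighted Michaelis–Menten fits across concentrations supplied kcat and KM, based on kobs from one- or two-exponential decay fits to normalised per-tile medians. The data came from barcoded ribozyme variants transcribed in situ by E. coli RNA polymerase on sequenced MiSeq chips and tracked at 37 °C by a hybridised Cy3 probe. Glucosamine-6-phosphate (40 μM to 10 mM) in HEPES/KCl/Mg(OAc)2 buffer was flowed in.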

glucosamine-6-phosphate [2] = variants of: B1; experiment: self-cleavage kobs at 2500 uM GlcN6P; higher = faster cleavage; RNA array
Summary of the method: as §1

glucosamine-6-phosphate [3] = variants of: B1; experiment: self-cleavage kobs at 640 uM GlcN6P; higher = faster cleavage; RNA array
Summary of the method: as §1

glucosamine-6-phosphate [4] = variants of: B1; experiment: self-cleavage kobs at 10000 uM GlcN6P; higher = faster cleavage; RNA array
Summary of the method: as §1

U31A A42U U45A G62U
self-cleavage kobs at 160 uM GlcN6P (glucosamine-6-phosphate [1]): < 1e-05 s⁻¹ | self-cleavage kobs at 2500 uM GlcN6P (glucosamine-6-phosphate [2]): < 1e-05 s⁻¹

A15G G21C A39G G40C A48C C58U
self-cleavage kobs at 160 uM GlcN6P (glucosamine-6-phosphate [1]): < 1e-05 s⁻¹

A12U G29A C68U
self-cleavage kobs at 160 uM GlcN6P (glucosamine-6-phosphate [1]): 0.000209 ± 5.1e-05 s⁻¹ | self-cleavage kobs at 640 uM GlcN6P (glucosamine-6-phosphate [3]): 0.000265 ± 6.4e-05 s⁻¹ | self-cleavage kobs at 2500 uM GlcN6P (glucosamine-6-phosphate [2]): 0.0017 ± 0.0004 s⁻¹ | self-cleavage kobs at 10000 uM GlcN6P (glucosamine-6-phosphate [4]): 0.00275 ± 0.0012 s⁻¹

G9U A12G
self-cleavage kobs at 160 uM GlcN6P (glucosamine-6-phosphate [1]): < 1e-05 s⁻¹ | self-cleavage kobs at 640 uM GlcN6P (glucosamine-6-phosphate [3]): < 1e-05 s⁻¹ | self-cleavage kobs at 2500 uM GlcN6P (glucosamine-6-phosphate [2]): < 1e-05 s⁻¹ | self-cleavage kobs at 10000 uM GlcN6P (glucosamine-6-phosphate [4]): < 1e-05 s⁻¹

A14C A39G C58G G60U G62U
self-cleavage kobs at 160 uM GlcN6P (glucosamine-6-phosphate [1]): < 1e-05 s⁻¹ | self-cleavage kobs at 2500 uM GlcN6P (glucosamine-6-phosphate [2]): < 1e-05 s⁻¹

C11A A42G G63A
self-cleavage kobs at 160 uM GlcN6P (glucosamine-6-phosphate [1]): < 1e-05 s⁻¹ | self-cleavage kobs at 640 uM GlcN6P (glucosamine-6-phosphate [3]): < 1e-05 s⁻¹

G29C G59U C68U
self-cleavage kobs at 160 uM GlcN6P (glucosamine-6-phosphate [1]): 0.000173 ± 8.1e-05 s⁻¹

G13A G44U C61G U65A
self-cleavage kobs at 160 uM GlcN6P (glucosamine-6-phosphate [1]): < 1e-05 s⁻¹ | self-cleavage kobs at 640 uM GlcN6P (glucosamine-6-phosphate [3]): < 1e-05 s⁻¹ | self-cleavage kobs at 2500 uM GlcN6P (glucosamine-6-phosphate [2]): < 1e-05 s⁻¹

G38C G41A G51U
self-cleavage kobs at 160 uM GlcN6P (glucosamine-6-phosphate [1]): < 1e-05 s⁻¹ | self-cleavage kobs at 2500 uM GlcN6P (glucosamine-6-phosphate [2]): < 1e-05 s⁻¹

A42G C61A C67A
self-cleavage kobs at 160 uM GlcN6P (glucosamine-6-phosphate [1]): 0.000467 ± 0.00018 s⁻¹

G13A A33G A36U G40U U55A
self-cleavage kobs at 160 uM GlcN6P (glucosamine-6-phosphate [1]): < 1e-05 s⁻¹ | self-cleavage kobs at 640 uM GlcN6P (glucosamine-6-phosphate [3]): < 1e-05 s⁻¹ | self-cleavage kobs at 2500 uM GlcN6P (glucosamine-6-phosphate [2]): < 1e-05 s⁻¹

G35A G40A U46C G60U
self-cleavage kobs at 160 uM GlcN6P (glucosamine-6-phosphate [1]): < 1e-05 s⁻¹ | self-cleavage kobs at 2500 uM GlcN6P (glucosamine-6-phosphate [2]): < 1e-05 s⁻¹

C58A G60U C61U C71A
self-cleavage kobs at 160 uM GlcN6P (glucosamine-6-phosphate [1]): < 1e-05 s⁻¹ | self-cleavage kobs at 2500 uM GlcN6P (glucosamine-6-phosphate [2]): < 1e-05 s⁻¹

G38A G41U U56G
self-cleavage kobs at 160 uM GlcN6P (glucosamine-6-phosphate [1]): < 1e-05 s⁻¹ | self-cleavage kobs at 640 uM GlcN6P (glucosamine-6-phosphate [3]): < 1e-05 s⁻¹ | self-cleavage kobs at 2500 uM GlcN6P (glucosamine-6-phosphate [2]): < 1e-05 s⁻¹

C10G A48C G51U U65C
self-cleavage kobs at 160 uM GlcN6P (glucosamine-6-phosphate [1]): < 1e-05 s⁻¹ | self-cleavage kobs at 640 uM GlcN6P (glucosamine-6-phosphate [3]): < 1e-05 s⁻¹ | self-cleavage kobs at 2500 uM GlcN6P (glucosamine-6-phosphate [2]): < 1e-05 s⁻¹

G29A U31G C50U C68A
self-cleavage kobs at 160 uM GlcN6P (glucosamine-6-phosphate [1]): 5.27e-05 ± 2.2e-05 s⁻¹ | self-cleavage kobs at 640 uM GlcN6P (glucosamine-6-phosphate [3]): 7.43e-05 ± 2.9e-05 s⁻¹ | self-cleavage kobs at 2500 uM GlcN6P (glucosamine-6-phosphate [2]): 8.2e-05 ± 3.2e-05 s⁻¹

C50G A64G
self-cleavage kobs at 160 uM GlcN6P (glucosamine-6-phosphate [1]): 0.000518 ± 0.00017 s⁻¹ | self-cleavage kobs at 640 uM GlcN6P (glucosamine-6-phosphate [3]): 0.000105 ± 2.1e-05 s⁻¹ | self-cleavage kobs at 10000 uM GlcN6P (glucosamine-6-phosphate [4]): 2.48e-05 ± 9.4e-06 s⁻¹

G40C U46A A64G C70A
self-cleavage kobs at 160 uM GlcN6P (glucosamine-6-phosphate [1]): < 1e-05 s⁻¹

U57C G60A
self-cleavage kobs at 160 uM GlcN6P (glucosamine-6-phosphate [1]): < 1e-05 s⁻¹ | self-cleavage kobs at 640 uM GlcN6P (glucosamine-6-phosphate [3]): < 1e-05 s⁻¹ | self-cleavage kobs at 2500 uM GlcN6P (glucosamine-6-phosphate [2]): < 1e-05 s⁻¹

C8U C71G
self-cleavage kobs at 160 uM GlcN6P (glucosamine-6-phosphate [1]): < 1e-05 s⁻¹ | self-cleavage kobs at 640 uM GlcN6P (glucosamine-6-phosphate [3]): < 1e-05 s⁻¹ | self-cleavage kobs at 2500 uM GlcN6P (glucosamine-6-phosphate [2]): < 1e-05 s⁻¹

G7U G66A
self-cleavage kobs at 160 uM GlcN6P (glucosamine-6-phosphate [1]): < 1e-05 s⁻¹ | self-cleavage kobs at 10000 uM GlcN6P (glucosamine-6-phosphate [4]): < 1e-05 s⁻¹

G35A U46G
self-cleavage kobs at 160 uM GlcN6P (glucosamine-6-phosphate [1]): < 1e-05 s⁻¹ | self-cleavage kobs at 640 uM GlcN6P (glucosamine-6-phosphate [3]): < 1e-05 s⁻¹ | self-cleavage kobs at 2500 uM GlcN6P (glucosamine-6-phosphate [2]): < 1e-05 s⁻¹

A39C C50G
self-cleavage kobs at 160 uM GlcN6P (glucosamine-6-phosphate [1]): < 1e-05 s⁻¹ | self-cleavage kobs at 640 uM GlcN6P (glucosamine-6-phosphate [3]): < 1e-05 s⁻¹

C34A G44U A53C U55G
self-cleavage kobs at 160 uM GlcN6P (glucosamine-6-phosphate [1]): < 1e-05 s⁻¹

A6U A14C
self-cleavage kobs at 160 uM GlcN6P (glucosamine-6-phosphate [1]): < 1e-05 s⁻¹ | self-cleavage kobs at 10000 uM GlcN6P (glucosamine-6-phosphate [4]): 4.13e-05 ± 7.6e-06 s⁻¹

A15U A33U C50U G51U G62U G63A C70U
self-cleavage kobs at 160 uM GlcN6P (glucosamine-6-phosphate [1]): 9.07e-05 ± 2.6e-05 s⁻¹ | self-cleavage kobs at 640 uM GlcN6P (glucosamine-6-phosphate [3]): 0.000118 ± 3.6e-05 s⁻¹ | self-cleavage kobs at 2500 uM GlcN6P (glucosamine-6-phosphate [2]): 7.13e-05 ± 2.3e-05 s⁻¹
